Laboratory results taken from US20220332804A1 (CSL INNOVATION, published 2022).
Residue numbers refer to the chain shown, from its start.

Assays:
Experiment in all cases: SPR, antibody captured, C2 as analyte;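 note: biacore at 37 °C, anti-C2 mAbs held by immobilised goat anti-human IgG, C2 alanine or serine mutants injected, double-referenced sensorgrams fitted to a 1:1 kinetic or steady-state model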
human C2 E476A = target: T1, human C2 E476A (human, UniProt P06681 21-752)
T1 sequence: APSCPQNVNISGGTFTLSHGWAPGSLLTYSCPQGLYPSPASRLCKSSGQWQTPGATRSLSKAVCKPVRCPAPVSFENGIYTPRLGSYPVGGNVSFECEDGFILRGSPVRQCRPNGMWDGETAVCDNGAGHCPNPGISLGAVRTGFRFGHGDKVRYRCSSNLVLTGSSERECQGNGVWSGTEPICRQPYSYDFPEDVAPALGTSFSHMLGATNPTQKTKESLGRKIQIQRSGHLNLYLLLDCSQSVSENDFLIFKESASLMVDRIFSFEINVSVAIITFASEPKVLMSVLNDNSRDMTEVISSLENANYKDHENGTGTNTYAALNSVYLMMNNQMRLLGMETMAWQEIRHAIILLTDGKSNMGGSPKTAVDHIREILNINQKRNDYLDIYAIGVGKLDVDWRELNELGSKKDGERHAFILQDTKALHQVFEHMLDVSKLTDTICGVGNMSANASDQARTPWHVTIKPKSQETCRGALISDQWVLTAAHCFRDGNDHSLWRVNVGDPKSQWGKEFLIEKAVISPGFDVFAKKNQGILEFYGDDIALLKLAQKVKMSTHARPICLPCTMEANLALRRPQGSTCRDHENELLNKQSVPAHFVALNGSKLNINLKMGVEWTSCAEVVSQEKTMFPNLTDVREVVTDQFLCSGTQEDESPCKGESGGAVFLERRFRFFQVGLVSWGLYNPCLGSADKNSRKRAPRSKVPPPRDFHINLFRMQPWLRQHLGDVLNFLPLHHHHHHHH

human C2 T317A = target: T2, human C2 T317A (human, UniProt P06681 21-752)
T2 sequence: T1 sequence with T297A, A456E

human C2 F689A = target: T3, human C2 F689A (human, UniProt P06681 21-752)
T3 sequence: T1 sequence with A456E, F669A

human C2 F437A = target: T4, human C2 F437A (human, UniProt P06681 21-752)
T4 sequence: T1 sequence with F417A, A456E

B1: RF16-242 (antibody, human IgG4 S228P, lambda, V domains shown)
VH: EVQLLQSGAEVKKPGESLKISCKGSGYSFTSYWIGWVRQMPGKGLEWMGIIYPGDSDTRYSPSFQGQVTISADKSISTAYLQWSSLKASDTAMYYCARRGHYGDYFDYWGQGTLVTVSS
VL: SYELTQPPSVSVSPGQTARITCSGDALPKKYAYWYHQKSGQAPVLVIYEDRRRPSEIPERFSGSSSGTMATLTITGAQVEDEGVYFCYSRDRAGNQRVFGGGTQLTVLG
notes: pH-dependent anti-C2 antibody from a phage display library
Kd (human C2 E476A): 14 nM | Kd (human C2 T317A): 5.9 nM | Kd (human C2 F689A): 6.3 nM | Kd (human C2 F437A): 107 nM
